Results on one molecule are retold here after patent publication US20200339702A1 (ULTRAHUMAN THIRTEEN, published 2020).

Test [1] addresses T1, human ERBB3 His tagged, monomeric (human, UniProt P21860 20-643, biotinylated in the Alphascreen assays (sites not given)).
T1 construct: Used unbiotinylated as Biacore analyte and biotinylated in Alphascreen; treated as one molecule; also called human ERBB3-His (Acrobiosystems); biotinylated monomeric human ERBB3
Kind of test: Alphascreen competition in solution, competitor h24C05 IgG1null, biotinylated human ERBB3-His. As for the experimental part:
The AlphaScreen assay (Perkin Elmer) was performed in a 25 μl final volume in 384-well white microtiter plates (Greiner). The reaction buffer contained 1×PBS pH 7.3 (Oxoid, Cat. nr. BR0014G) and 0.05% (v/v) Tween® 20 (Sigma, Cat. nr. P9416). Purified IgG samples were titrated in three fold serial dilutions starting at 100 nM final concentration and incubated with biotinylated human ERBB3-His (Acrobiosystems) at 1 nM final concentration for 20 minutes at room temperature. The parental IgG and the anti-human IgG1 Acceptor beads at were added and the mix was incubated for 1 hour at room temperature. Followed by addition of the Streptavidin Donor beads and incubation for 30 minutes at room temperature. The emission of light was measured in the EnVision multilabel plate reader (Perkin Elmer) and analysed using the EnVision manager software. Values were reported as Counts Per Second (CPS) and corrected for crosstalk.

The target in test [2] is T1, human ERBB3 His tagged, monomeric. Kind of test: SPR (Biacore). As for the experimental part:
Affinity (KD) of purified IgGs was determined via SPR with antigen in-solution on a Biacore® 3000 (GE). A mouse anti-human antibody (CH1 specific) was immobilized on a CM5 Sensor Chip to a level of 2000 RU in acetate buffer at pH 4.5 using amine coupling following the Wizard instructions for two channels. One channel was used for background signal correction. The standard running buffer HBS-EP pH 7.4 was used. Regeneration was performed with a single injection of 10 μl of 10 mM Glycine at pH 1.5 at […]. IgG samples were injected for 2 minutes at 50 nM at 30 μl/min followed by an off-rate of 60 seconds. The monomeric antigen (human ERBB3 His tagged or rhesus monkey ERBB3 His tag) was injected in two fold serial dilutions from 3 nM down to 0.2 nM, for 2 minutes at 30 μl/min followed by an off-rate of 300 seconds. The obtained sensorgrams were analysed using the Biacore® 3000 evaluation (BlAevaluation) software. The KD was calculated by simultaneous fitting of the association and dissociation phases to a 1:1 Langmuir binding model.
(Surface plasmon resonance follows binding to a sensor surface in real time, without labels.)

B1: TTP IgG1null (antibody, V domains shown)
VH: QVQLVESGGGLVKPGGSLRLSCAASGFTFSDYGMSWIRQAPGKGLEWVSTISDSGSTIYYADSVKGRFTISRDNAKNSLYLQMNSLRAEDTAVYYCAREYGDYDGFDYWGQGTLVTVSS
VL: DIQMTQSPSSLSASVGDRVTITCRASQSISSYLNWYQQKPGKAPKLLIYAASSLQSGVPSRFSGSGSGTDFTLTISSLQPEDFATYYCLQYDSTPLTFGGGTKVEIK
notes: Designer clone; Human IgG1null and human Ckappa; also called Total Theoretically Possible clone
Take B1: the “IC50 (read off the curve)” value in test [1] was approximately 5 nM. The “fold loss of KD against clone MH5” value in test [2] was approximately 2 fold.
